Experimental data reported in the DeepSol protein solubility set.

assay: soluble on expression in E. coli; label from the status in PepcDB or PDB records

| Sequence | soluble on expression in E. coli |
| --- | --- |
| MRLNFAYPATGLQKSFEVDEEKKLRLFFEKRMSQEVAIDALGDEWKGYVVRIGGGNDKQGFPMKQGILTNGRVRLLLKKGQSCYRERKNGERKRKSVRGCIVDANMSALSLVIVKKGDGEIEGLTDSVLPRKLGPKRASKIRKLFNLTKHDDVTKYVITHDKTFPDGVTKTIAPKIQRLITPARIARKKYLLRQKRNQKIKMRDDAAAYHKLLAKYSKEEHDAKIARRRSSASHHSESEVKKTSKK | not soluble |
| MSQQKSDFADDADIDESLDELASEETIEETVENLEANGFEVIVVNSADDALAELQSLIPAEASVMNGHSTTLEEIGFDEYLSDGDHGWESLPEEIWSIDDDAKRQAARRESQTADYFLGGINGISQTGELVAADRSGSRIGAYPFAASNVVIVSGVNKIVPTLEDALDRLETVAYPLENERAKEAYGVDSAIAKQLILRQELEEGRTTVVLIREHLGYLEHHHHHH | soluble |
| SDLMTPWPIIEKRIVAAASADFVTAIYNPKSEGRYWQLYRFVEIFMQYRSADTPVGLVRQAGREEEQVTVTTLGEFDPEVVDMFTVVLVGNSQSYCYEGHFITPRGYYPEEEIEAKGI | not soluble |
| MELTMKNPTVENLKVLTQEFFSLHWNAVLLGSDYPEWSDIYEFTGSMPNHDKQGVYAFVKNGVVTYIGVGASSNGTGRYAGHGLGKRFQSYSKVVDGRHVPTDPRLVDAGAMITIGFKPEQSYLAYALEMFLIGKMSTEHNINRPSK | not soluble |
| MTIEKIDTLVIGAGQAGVAMSEHLSKQDVPHLVLERNRIAEQWRTGRWDSLVANGPAWHDRFPGLEFEEHDPDSFVPKEKIADYLVDYAKKFDAPIRTGIEVKNVERNTNGQGFIIETSQGTIEAKRVVSATGPFQVPVIPPIAKNEKITQIHSADYRNPEQLEDGAVLVVGAGSSGVQIADELQRSGRKVFLSTGPHDRPPRSYRNRDFCWWLGVLGEWDRESLEPGTEHVTIAVTGAHGGNGTVDFRALAHQGITLLGMTKEFNNGKVTFQKDLNTNVERGNKNYMDFLDSADAYIERNGLDLPEEPTARDVLSDPECMTNPILELDLAKEGITSIVWATGFALDYSWLNVDAFDENGKPAHQRGVSTEPGVYFVGQAWLSRRGSAFIWGVWHDAKHIAGHISTQRTYSAYQDASQRLEHHHHHH | soluble |
| MNVETIREYCLSKKGVTESFPFDDVSLVMKVLDKMFALIDLEGANSISLKCDPERAIELREHYAGIEGAYHFNKKYWNGVYFDRDVDDKLIKELVDHSYEEVIKKFTKKLRAEYDALP | not soluble |
| TKAVTFYEDINYGGASVSLQPGNYTLSQLNTAKIPNDWMTSLKVPSGWTVDVYENDNFTGTKWTYTSDTPWVGNDANDKMTSVKIYST | soluble |
| MGSDKIHHHHHHMTRYRFFHTADIHLGKTYRTSTGEAERYEDFFRMLGSIVSDAIAARVDFVLIAGDLFHTGQILPRTFARTIETLQPLKNAGIPCIAVEGNHDWIHRRDSISWMEALSQMGYIHLLRPSRTETGGYRFSPFDYEQGMGGHIEVNGVNIYGLGYIGTQAGAHVARICEAITTTNNILLFHVGVWTYSPVEIGNMKPEEALPLADVFDYVALGHGHKPYIIATPEGRAYAFNPGSPECVNFGEEKYDKGYYLVTVNDGVYTHEFRPTNPRPMLVTTIDLDGAGDAETALTRFRNVVAAKIASFSDDRQPLLEIKLTGRVGFHPFELGRERLRLALEEICNPLHVEIKNHLSLVTAGGGAESEKKSLAEIEREVLRELISAKSEYKGREDELVRLSLAIRDQVLKGETDGEELLGLLMREPA | not soluble |
| MKIAMLGSLGNINRIVVPKLVQAGHDVTVISTSPKRQASIEAIGAHAAIGTMTDVDFLSTTFTDKDVVYLMLSGGIGDDPFEGAVAQAKIWKQAIENAGVTNVVNLSSIGADADEVAGSLHAYNLIEHELRQLDGVNLAFVRPTGFYANLFGNLATIKAEHKIYSSTPAASAQKYVAPEDIASVVYPLIDHTPAGITVKYAFSDTFTGDQFVADLRDALNMPDLQWVQISDEQYQANLTNHGVPVKIAASLVQTSRYQREPEGLYADLNASDTSAGQVKLADFVRTFVVAYNSEGGYQSHTIAD | not soluble |
| MSLAAGVLPQNEQPYSTLVNNSECVANMKGNLERPTPKYTKVGERLRHVIPGHMACSMACGGRACKYENPARWSEQEQAIKGVYSSWVTDNILAMARPSSELLEKYHIIDQFLSHGIKTIINLQRPGEHASCGNPLEQESGFTYLPEAFMEAGIYFYNFGWKDYGVASLTTILDMVKVMTFALQEGKVAIHCHAGLGRTGVLIACYLVFATRMTADQAIIFVRAKRPNSIQTRGQLLCVREFTQFLTPLRNIFSCCDPKAHAVTLPQYLIRQRHLLHGYEARLLKHVPKIIHLVCKLLLDLAEEGHHHHHH | not soluble |
| MGSDKIHHHHHHMYCMEKCVENYFVLNEEIKDKKTFDGNFVENGKSLYEVIRIIDGIPLFLGNHIKRLENSFKIEKLSFPVSLDNIKQNIFKLIEANKCEVGNVKLVFNYFENKCDFYGYFVQHKYPDEYDYINGVKTILYHGERSNPNAKVINLNFRKNVDKKIKEKGVFEAILVDRNGNITEGSKSNIFMVKSNTVYTAPVEDVLPGITREIIVEICKQCGYTVVDEKINYKKIDQFEGLFISGTSPKVLPICQVDDIKFNSQGTEMIRNIRKAYDDYISNYIKNFDSRS | not soluble |
| MSKQDEVIVVGKFGASYGIRGWLKVVSFTDQPESIFDYKPWLIQVKGEWVEFSVESWKRHKGLVCKLKGLDVREEAQTYTNLEIAVKADALPELSEDEFYWRELFGMEVVTTKGYALGVVDDIFETGSNDVLVVKANLKDAFGKKERLIPFIDEQVIKLIDREAQRIEVDWDPGFLEHHHHHH | soluble |
| MGSDKIHHHHHHMKTNLLNYDLQGLTRHFADMGEKPFRAKQVMRWMHQSGAQNFNEMTDLAKSLRHKLNEQAGIEIPKLMMSQKSSDGTRKWLLDVGTGNGVETVFIPESDRGTLCISSQVGCALECTFCSTGRQGFNRNLTAAEIIGQLWWANKAMGVTPKNERVISNVVMMGMGEPMANFDNVVTALSIMLDDHGYGLSRRRVTVSTSGMVPQMDRLRDVMPVALAVSLHASNDEVRNQIVPLNKKYPLKELMAACQRYLVKAPRDFITFEYVMLDGINDKAQHARELIELVTDVPCKFNLIPFNPFPNSGYERSSNENIRVFRDILQQAGFVVTVRKTRGDDIDAACGQLAGQVQDKTRRQQKWQQILIGQQG | not soluble |
| MAHHHHHHMSLNLTDAADDRSYKEMEKYTVERVAGQGTFGTVQLARDKSTGSLVAIKKVIQDPRFKNRELQIMQHLARLRHPNIVMLKNYFYTVGGEGRRNDVYLNVVMEFVPETLHRTCRNYYRRMTNPPLILVKVFMFQLLRSIACLHIPVINICHRDIKPHNVLVDEQTGELKLCDFGSAKRLAADEPNVAYICSRYYRAPELIFGNQFYTTAVDIWSVGCIFAEMLLGEPIFCGENTSGQLREIVKILGKPTKEELHKLNGSSTEINANAKATPWENVFKQPLPAEVYDLCGKIFKYVPDQRITPLDALCHPFFNELREPTTKLPSGNPLPAHLYQFTPDEVEAMTEAQREYLLKK | not soluble |
| MTAEILVVGSILPSDKFFCFLMGPAPVFPNSRKPATLDANSDEQTLRPYFKTKVEQAEQTVAEKSINVRRLMAQQKELNGKVRLLKEEISHLHEQGSHVGEVCKAMDKKKVLVKNHPDGKYIVDVAASVDISTLAAGTRVALRADNYAIHEVLPSKVDPLVSLMMVEKVPDSTYEMVGGLDTQIKEIKEVIELPVKHPELFDALGIAQPKGVLLYGPPGTGKTLLARAVAHHTECTFIRVSGSELVQKFIGEGARMVRELFVMAREHAPSIIFMDEIDSIGSSRVEGSRGGDSEVQRTMLELLNQLDGFEATKNIKVIMATNRIDILDSALLRPGRIDRKIEFPAPDEKARAQILKIHSRKMNLMRGIRMDKIAEQIPGASGAEVKSVCTEAGMFALRERRIHVTQEDFEMAVGKVMQKDSEKNMSIKKLWK | not soluble |
| MAHHHHHHMVENEVYNRDMRIVRSRERLDGRPTLRSFFNKDGLLLKTYGWIVRNAVGLIVLIHGLNSHTRFSFLRHNVHVFNNRAILMDADNYYIYKNSWIEHFNKNGYSVFGIDLQSHGESEGWENLSLNVKEFDDLVYDVLEYIQKVQDDNARYMNYSSSSYSSSSSRSNSSSNSSSNSGSNSNSNSNSNSRGGESPRNDNSANRMIAPLPVYLIGQSMGGNVALRALQIVGKYRGLNRRLNIRGCVSLSGMIAVEALGLPSSYIYKSFFMPLSRFLSDFLPTLRLLCEMPYKRFQYIRDIGRFDTMRYRRGITCRFAYELLKAMDNLDHDMRFMPRDIPVLFIHSSKDKLCYPGGVVSFYNRLNIRNKELHMLNYMEHMLTMEPGNERVLSKIMNWLYNMSRPQRITA | not soluble |
| MGSDKIHHHHHHMGKFDQITYFIAVVEEHGFAAAARKFGVSTAAVSRQIARLEAELKAELLVRTTRKLSLTDIGARYYQQCKKTLLELNEAEIAIANSRNEAVGILNVTSSRYFAMRFLLPYLPEFMELNPKLQIKIELAERFPDLAQENVDVLFGVSMEGPPELVRKRVSTTRYVLCASPDYLAKNGIPKTPSELGKHRYITHSMRNPDNLVTFKDNEQIYVEPVLWLNDSRALCECALLGMGIIKLHEYIVTEALQDGRLIEVLPEFQESSLSVYLYYQASRYLQPKIRRFIDFFTK | not soluble |
| MGKENLYVVLPSYNEEANIGKLINEWNVQFKDLEARGIKLEIIIVNDGSTDNTLAVAEAFSKHNDNVVVIDHGVNKGLGEGLNTGINYVLSQKQKGYMCLMDGDMTHEPKYIFSMLDKLQEEKLDCVIASRYRRGAKVEGLSLFRKFLSFGARVLYTIRLGIPNVRDYTCGYRLYKTSVLEKLHKVYGKRIVKETGFACMMELIVKVSKENFKIGEVPFVLKYQLKGGESKMKVGKTIKRSLLLLRVYK | soluble |
| MVYFGRAKTLSHRHPNTGSGGCVFSLKTVLLYQQDSYLREFEARVEEASGGRVVLDRTAFHPGPHGGLDTDTGYIFYGDKRYRVVRAAVEGDVVAHYLDSDTATLEPGAVVKGVIDWERRYRMMRLHTFSHILAAVLYEKHDVLVTGGHITPDYGKDDFSIEGGGWREVIEEAFREANEIASRCIEVKVYWLPREEALKIPGIVKLANKLPPEVETLRIVEIPGVDVQADGGPHVRNTCEIGRVVITKLESKGKRRKRVYYTLEEALEPTPEAP | not soluble |
| MGSDKIHHHHHHMPFVRLDVRRPGHADRIVYVPVTTRTSYLLKSSEGGMVLRFDRGDVVAARVRPLNIGDVGALLSRRRRHKRFQLPLGRGAVLQPLLHISGPEGRELARALGSLAGWGFGTASDNLQKTLSRHFNGPQAEAPERLPTVEPKIAVALHLHYPDLWPEFEALLEATGRQFQLFLTLTRPDAALAQRVQARFPGAEITVYENRGRDVGPFIQLLREGKFDPFDLICKLHGKKSGQSGPRMVLGEIWRQVSAFDLIGSRGVVDRIIANFERSPDTQMIGSRRFRLPNEWKGEKSAWGENRAMALNLLETMGMPSSSRLDFFAGTMFWVRRGALEPLRRLDLPLAAFPEETGQQDGTLQHALERVLGMICTKIGVASDGDMTTDSREADPIG | not soluble |
| MKVTDVRLRKIQTDGRMKALVSITLDEAFVIHDLRVIEGNSGLFVAMPSKRTPDGEFRDIAHPINSDMRQEIQDAVMKVYDETDEVIPDKNATSDNEESDEA | soluble |
| PDMKESMSDLYYEMISSAQKSIWIATPYFVPNESIRTALKAAATKGVEVRVMVPEKNDSFLTQYASRSYFPELLLEGIEVYSYQKGFMHQKVMIIDGDLASVGTANMDMRSFQLNFEVNVFFTDAEAIRTLEAHFEEDMQESEKLS | soluble |
| MGSDKIHHHHHHMYELYFNWKFIWKKVGLASLTTNSTTYHSEPAYRVNLLAISSKEADFFFKMRDTLTSVMTEKLEPRYFRKGAEEGKRYTVDEARFSFRNGMCYVNQKRVRKDGSITETEQSDNRCIYDMLTILAQARSFDPKEYTIGQRIQFPMATGRRVEEQTLIYRGIKKITAENDTTYRCLIFSLVEYNKKGKEKEVITFYVTDDRNHLPVRLDMHLNFGSAKAFLKSVSGYRHPQTSIVTK | not soluble |
